Measured values from PMC2229591.

Columns and labels:
[1] = biological target: filamentous actin (rabbit muscle) (rabbit) (UniProt P68135); assay: co-sedimentation; conditions: scale: actin per fragment
[2] = biological target: C0 fragment of cardiac myosin binding protein C (MyBP-C) (human); assay: pull-down + co-IP

Substance | stoichiometry N [1] | concentration that gives half-maximum binding [2] [µM]
C0C2 fragment of cardiac MyBP-C (domain or fragment) | 7 | 
filamentous actin (rabbit muscle) (from UniProt P68135 1-377) (natural protein) |  | < 10
